{"source": "patent US20070010432A1", "about": "“Heat shock protein 90 activator” (priority 2002, published 2007)", "molecules": {"B1": {"name": "N terminal domain of Aha1: truncated Aha1 polypeptide of 162 aa from the N terminal MVVNNP to GNDIQV (protein)", "chain": "MVVNNPNNWHWVDKNCIGWAKEYFKQKLVGVEAGSVKDKKYAKIKSVSSIEGDCEVNQRKGKVISLFDLKITVLIEGHVDSKDGSALPFEGSINVPEVAFDSEASSYQFDISIFKETSELSEAKPLIRSELLPKLRQIFQQFGKDLLATHGNDIQV"}, "B2": {"name": "C terminal domain of Aha1: truncated Aha1 polypeptide consisting of the remainder of the Aha1 sequence (protein)", "chain": "PESQVKSNYTRGNQKSSFTEIKDSASKPKKNALPSSTSTSAPVSSTNKVPQNGSGNSTSIYLEPTFNVPSSELYETFLDKQRILAWTRSAQFFNSGPKLETKEKFELFGGNVISELVSCEKDKKLVFHWKLKDWSAPFNSTIEMTFHESQEFHETKLQVKWTGIPVGEEDRVRANFEEYYVRSIKLTFGFGAVL"}}, "key": {"Yeast Hsp90": {"target": "T1, Yeast Hsp90 (Saccharomyces cerevisiae, UniProt P02829)", "T1 construct": "made in house; host or cells: E. coli", "T1 sequence (P02829 whole entry)": "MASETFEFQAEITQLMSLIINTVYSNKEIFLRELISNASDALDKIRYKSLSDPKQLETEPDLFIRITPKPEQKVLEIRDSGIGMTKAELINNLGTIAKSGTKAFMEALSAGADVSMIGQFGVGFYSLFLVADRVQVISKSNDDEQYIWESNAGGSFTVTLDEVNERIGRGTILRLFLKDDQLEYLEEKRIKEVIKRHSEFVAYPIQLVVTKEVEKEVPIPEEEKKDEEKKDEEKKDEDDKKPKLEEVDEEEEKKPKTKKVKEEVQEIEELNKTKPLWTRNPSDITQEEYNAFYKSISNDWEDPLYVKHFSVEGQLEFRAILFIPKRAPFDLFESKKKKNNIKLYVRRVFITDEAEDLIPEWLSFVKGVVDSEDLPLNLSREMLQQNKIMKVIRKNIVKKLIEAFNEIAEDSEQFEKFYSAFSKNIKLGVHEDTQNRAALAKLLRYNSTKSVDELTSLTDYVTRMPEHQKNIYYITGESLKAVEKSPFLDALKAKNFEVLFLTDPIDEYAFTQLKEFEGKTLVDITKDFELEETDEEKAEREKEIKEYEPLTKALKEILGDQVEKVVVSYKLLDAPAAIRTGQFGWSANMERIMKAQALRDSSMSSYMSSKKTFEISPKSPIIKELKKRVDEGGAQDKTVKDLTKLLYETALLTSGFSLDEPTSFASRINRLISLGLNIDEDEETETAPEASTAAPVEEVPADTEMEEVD", "test": "Malachite green colorimetric ATPase assay, yeast Hsp90", "assay_type": "biochemical", "description": "The activity of enzymes that release inorganic phosphate can be measured using the reaction of the cationic dye, malachite green, with a phosphomolybdate complex to generate a blue-green colour with an absorbance maximum at 610 nm (Cogan, E. B. et al (1999) Anal. Biochem. 271, 29-35; Baykov, A. A. et al (1988) Anal. Biochem. 171, 266-270; Harder, K. W. et al (1994) Biochem. J. 298, 395-401; Maehama, T. et al (2000) Anal. Biochem. 279, 248-250) as described above.\nChemicals are of the highest purity commercially available and all aqueous solutions are made up in AR water. • 1. For the full length Aha1, an assay buffer of 45 mM Tris-HCl pH 7.5, 9 mM KCl, 3 mM MgCl may be used. For the C-and N-terminal domain of Aha1 or the Hch1 homologue, an 20 mM Tris-HCl pH 7.5, 4 mM KCl, 1.2 mM MgCl. An assay buffer of 100 mM Tris-HCl, pH 7.4, 20 mM KCl, 6 mM MgCl2 may also be used. Stored at 4° C. • 2. 0.0812% (w/v) malachite green (Sigma M 9636). Stored at room temperature. • 3. […]"}, "[1]": {"target": "Hsp90 (species not stated; FIGS. 4 to 6)"}, "[2]": {"target": "Human hsp90 beta protein (human) (UniProt P08238)"}, "Human Hsp90": {"target": "T2, Human Hsp90 (Homo sapiens, UniProt P08238)", "T2 construct": "made in house; host or cells: E. coli BL21 (DE3) pLysS (stated for Aha1 only)", "T2 sequence (P08238 whole entry)": "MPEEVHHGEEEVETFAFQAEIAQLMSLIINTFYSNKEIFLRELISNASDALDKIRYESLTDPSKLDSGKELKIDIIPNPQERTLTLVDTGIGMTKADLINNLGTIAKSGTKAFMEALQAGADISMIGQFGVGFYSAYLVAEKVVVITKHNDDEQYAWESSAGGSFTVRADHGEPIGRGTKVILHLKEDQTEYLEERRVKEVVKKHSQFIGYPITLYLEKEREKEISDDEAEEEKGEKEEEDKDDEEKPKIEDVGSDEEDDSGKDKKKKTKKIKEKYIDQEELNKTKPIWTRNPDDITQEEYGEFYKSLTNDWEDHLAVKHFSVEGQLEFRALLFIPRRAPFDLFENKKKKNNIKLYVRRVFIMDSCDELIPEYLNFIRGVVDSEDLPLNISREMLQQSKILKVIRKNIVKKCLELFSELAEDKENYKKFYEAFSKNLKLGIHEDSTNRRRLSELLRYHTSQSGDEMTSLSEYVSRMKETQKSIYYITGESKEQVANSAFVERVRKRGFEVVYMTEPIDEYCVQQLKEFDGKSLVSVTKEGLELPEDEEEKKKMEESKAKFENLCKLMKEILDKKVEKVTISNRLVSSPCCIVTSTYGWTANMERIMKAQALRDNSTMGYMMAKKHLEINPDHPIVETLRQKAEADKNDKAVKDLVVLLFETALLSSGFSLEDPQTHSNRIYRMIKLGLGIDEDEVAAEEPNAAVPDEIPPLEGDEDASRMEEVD", "test": "Stimulation of human HSP90 ATPase activity by Aha1", "assay_type": "biochemical", "protocol": "Each value is the mean±Sd of n=4 ATP at 0.6 mM.\nEach point is the mean±SD of n=4 ATP at 0.6 mM.\nChemicals are of the highest purity commercially available and all aqueous solutions are made up in AR water. • 1. For the full length Aha1, an assay buffer of 45 mM Tris-HCl pH 7.5, 9 mM KCl, 3 mM MgCl may be used. For the C-and N-terminal domain of Aha1 or the Hch1 homologue, an 20 mM Tris-HCl pH 7.5, 4 mM KCl, 1.2 mM MgCl. An assay buffer of 100 mM Tris-HCl, pH 7.4, 20 mM KCl, 6 mM MgCl2 may also be used. Stored at 4° C. • 2. 0.0812% (w/v) malachite green (Sigma M 9636). Stored at room temperature. • 3. 2.32% (w/v) polyvinyl alcohol USP (Sigma P 1097). Stored at room temperature. The polyvinyl alcohol dissolves in boiling water with difficulty and stirring for 2-3 h is required • 4. 5.72% (w/v) ammonium molybdate in 6M hydrochloric acid. Stored at room temperature. • 5. […] Stored at room temperature. • 6. ATP, disodium salt, special quality (Boehringer Mannheim 519979). Stored at 4° C. • 7. […]\nInitially, the reagent was a dark brown colour, but after standing at room temperature for about 2 h, this became a golden yellow colour and was ready for use. […]\nTo stop the incubation, 80 μl of the malachite green reagent was added to each well and the plate shaken again. […] The absorbance at 620 nm was measured using a suitable plate reader (e.g. Victor^2, PerkinElmer Life Sciences). […]"}, "Hsp90": {"target": "T3, Hsp90 (Saccharomyces cerevisiae, UniProt P02829)", "T3 construct": "made in house; host or cells: E. coli (if the yeast protein of the reagent list)", "T3 sequence (P02829 whole entry, the tested form may be a part)": "as the sequence (P02829 whole entry) above", "test": "Effect of Aha1, Aha1 domains or Hch1 concentration on geldanamycin dependent ATPase activity of Hsp90", "assay_type": "biochemical", "settings": "for Effect on Hsp90 ATPase activity (in words): FIG. 5 and 6, 20 mM Tris pH 7.5, 4 mM KCl, 1.2 mM MgCl2", "protocol": "Half activation is shown to be at […] Aha1. 0.2 μM Aha1 was used in a buffer consisting of 45 mM Tris pH 7.5, 9 mM KCl, 3 mM MgCl2.\n2 μM Aha1 was used in a buffer consisting of 20 mM Tris pH 7.5, 4 mM KCl, 1.2 mM MgCl2.\nHch1 and truncated Aha1 polypeptides corresponding to the N and C terminal domains of full-length Aha1 were expressed and purified as described above. The N terminal domain polypeptide (nAha1) consisted of 162 aa from the N terminal MVVNNP to GNDIQV. The C terminal domain polypeptide (cAha1) consisted of the remainder of the Aha1 sequence.\nChemicals are of the highest purity commercially available and all aqueous solutions are made up in AR water. • 1. For the full length Aha1, an assay buffer of 45 mM Tris-HCl pH 7.5, 9 mM KCl, 3 mM MgCl may be used. For the C-and N-terminal domain of Aha1 or the Hch1 homologue, an 20 mM Tris-HCl pH 7.5, 4 mM KCl, 1.2 mM MgCl. An assay buffer of 100 mM Tris-HCl, pH 7.4, 20 mM KCl, 6 mM MgCl2 may also be used. Stored at 4° C. • 2. 0.0812% (w/v) malachite green (Sigma M 9636). Stored at room temperature. • 3. 2.32% (w/v) polyvinyl alcohol USP (Sigma P 1097). Stored at room temperature. The polyvinyl alcohol dissolves in boiling water with difficulty and stirring for 2-3 h is required • 4. 5.72% (w/v) ammonium molybdate in 6M hydrochloric acid. Stored at room temperature. • 5. […] Stored at room temperature. • 6. ATP, disodium salt, special quality (Boehringer Mannheim 519979). Stored at 4° C. • 7. E. coli expressed yeast HSP90 protein, purified >95% (10) and stored at −80° C. as 10 μl aliquots containing 0.5 mg of protein. Assay Protocol"}}}
{"molecule": "C=CCNC1=C2C[C@@H](C)C[C@H](OC)[C@H](O)[C@@H](C)/C=C(\\C)[C@H](OC(N)=O)[C@@H](OC)/C=C\\C=C(/C)C(=O)NC(=CC1=O)C2=O", "note": "[17AAG]", "values": [{"measurement": "Inhibition of yeast HSP90 ATPase activity (in words)", "setting": "Yeast Hsp90", "value": "potent inhibitors"}]}
{"molecule": "C[C@@H]1C[C@H]2O[C@@H]2/C=C\\C=C\\C(=O)Cc2c(Cl)c(O)cc(O)c2C(=O)O1", "note": "[Radicicol, radicicol]", "values": [{"measurement": "Inhibition of yeast HSP90 ATPase activity (in words)", "setting": "Yeast Hsp90", "value": "potent inhibitors"}]}
{"molecule": "Aha1 (YDR214W), full length (from UniProt Q12449)", "values": [{"measurement": "Half maximal activation of Hsp90 (geldanamycin dependent ATPase activity)", "setting": "[1]", "value": "< 1", "unit": "µM"}, {"measurement": "ATPase activity of human Hsp90 (malachite green assay of inorganic phosphate)", "setting": "[2]", "value": 2, "unit": "fold"}]}
{"molecule": "Aha1: Aha1 (YDR214W) protein expressed in E. coli; co-activator stimulating Hsp90 ATPase activity", "values": [{"measurement": "Increase of the activity of human Hsp90 in the presence of Aha1", "setting": "Human Hsp90", "value": "approximately 2 fold"}, {"measurement": "Effect on ATPase activity of increasing concentrations of human HSP90 (in words)", "setting": "Human Hsp90; FIG. 1, ATP 0.6 mM", "value": "significantly increase"}, {"measurement": "EC50", "setting": "Hsp90; FIG. 4, text of results, read-out: Aha1 concentration for half maximal activation of Hsp90", "value": "< 1", "unit": "µM"}]}
{"molecule": "Hch1: homologue of Aha1, expressed and purified like Aha1", "values": [{"measurement": "Effect on Hsp90 ATPase activity (in words)", "setting": "Hsp90", "value": "activate Hsp90 ATPase activity, but to a lesser extent than the full length Aha1 polypeptide"}]}
{"molecule": "B1", "values": [{"measurement": "Effect on Hsp90 ATPase activity (in words)", "setting": "Hsp90", "value": "activate Hsp90 ATPase activity, but to a lesser extent than the full length Aha1 polypeptide"}]}
{"molecule": "B2", "values": [{"measurement": "Effect on Hsp90 ATPase activity (in words)", "setting": "Hsp90", "value": "little or no effect"}]}
